Laboratory results published in article PMC2615627.

How the values were obtained:
[1] = biological target: T1, hRPA (replication protein A heterotrimer RPA1+RPA2+RPA3) (human (Homo sapiens), UniProt P27694;P15927;P35244 1-616;1-270;1-121); test: EMSA
[2] = biological target: T1, hRPA (replication protein A …); test: EMSA; remark: listed apart in the source

T1 sequence (P27694 whole entry, chain 1 of 3): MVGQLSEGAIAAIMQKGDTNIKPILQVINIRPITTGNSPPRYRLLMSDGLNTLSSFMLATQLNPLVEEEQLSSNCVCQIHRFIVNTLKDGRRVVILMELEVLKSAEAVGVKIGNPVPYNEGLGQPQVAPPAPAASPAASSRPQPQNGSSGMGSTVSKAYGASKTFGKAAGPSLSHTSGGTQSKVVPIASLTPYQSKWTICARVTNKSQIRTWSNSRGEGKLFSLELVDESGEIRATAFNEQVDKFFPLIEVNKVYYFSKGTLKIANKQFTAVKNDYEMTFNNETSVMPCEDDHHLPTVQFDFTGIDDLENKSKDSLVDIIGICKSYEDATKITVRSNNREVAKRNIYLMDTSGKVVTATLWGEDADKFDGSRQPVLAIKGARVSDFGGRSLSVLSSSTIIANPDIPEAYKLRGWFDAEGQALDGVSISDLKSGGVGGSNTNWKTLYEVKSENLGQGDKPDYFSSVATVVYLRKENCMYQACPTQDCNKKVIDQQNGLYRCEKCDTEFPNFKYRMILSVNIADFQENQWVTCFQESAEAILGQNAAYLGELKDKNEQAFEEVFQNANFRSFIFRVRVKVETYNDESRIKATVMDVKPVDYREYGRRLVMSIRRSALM
T1 sequence (P15927 whole entry, chain 2 of 3): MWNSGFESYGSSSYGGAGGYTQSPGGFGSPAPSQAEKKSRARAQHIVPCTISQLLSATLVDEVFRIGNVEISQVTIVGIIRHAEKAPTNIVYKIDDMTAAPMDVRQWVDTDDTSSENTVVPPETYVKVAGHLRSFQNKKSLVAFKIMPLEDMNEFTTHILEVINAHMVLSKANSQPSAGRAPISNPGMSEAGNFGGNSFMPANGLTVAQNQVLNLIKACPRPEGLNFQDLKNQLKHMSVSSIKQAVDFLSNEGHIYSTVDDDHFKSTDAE
T1 sequence (P35244 whole entry, chain 3 of 3): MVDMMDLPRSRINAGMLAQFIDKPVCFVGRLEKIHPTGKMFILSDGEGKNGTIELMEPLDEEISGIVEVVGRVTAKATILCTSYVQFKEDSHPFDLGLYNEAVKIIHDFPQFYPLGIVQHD

Binder | binding result [1] | binding signal [2]
GATCTCGGCGACGCACACGCGTCCTAACTCG (ssDNA) [Oligo 31] | binds | 
TTTTTTTTTTTTTTTTTTTTTTTTTTTTTTT (ssDNA) [poly(dT)31] |  | ~10 fold higher affinity than Oligo 31
